From PMC10805311, “Pseudomonas aeruginosa two-component system CprRS regulates HigBA expression and bacterial cytotoxicity in response to LL-37 stress” (PLOS Pathogens, 2024)
Changes are numbered by the printed parent chain.

Columns and labels:
[1] = tested on: CprRD53A / higB DNA fragments; assay: EMSA, CprRD53A binding to higB promoter DNA; design: species or system P. aeruginosa; conditions: 4°C 30 min
Procedure: (§1) The gene promoters were obtained by PCR. The CprR and DNA fragment were mixed in different ratios (total 10 μL buffer, 25 mM Tris–HCl pH 7.5, 150 mM NaCl, 1 mM MgCl2, 2 mM KCl) and incubated at 4°C for 30 min, then the samples were analyzed by 8% polyacrylamide gel electrophoresis in 0.5 × TBE (Tris/boric acid/EDTA) buffer at 130 V for 120 min. The bands were staining with EB and visualized through BioRad imager.

[2] = tested on: CprR / higB DNA fragments; assay: EMSA, CprR binding to higB promoter DNA; design: species or system P. aeruginosa; conditions: 4°C 30 min
Procedure: as §1

[3] = tested on: T1, CprR V192A V193A (Pseudomonas aeruginosa), ORF:b369b159; assay: EMSA
T1 sequence: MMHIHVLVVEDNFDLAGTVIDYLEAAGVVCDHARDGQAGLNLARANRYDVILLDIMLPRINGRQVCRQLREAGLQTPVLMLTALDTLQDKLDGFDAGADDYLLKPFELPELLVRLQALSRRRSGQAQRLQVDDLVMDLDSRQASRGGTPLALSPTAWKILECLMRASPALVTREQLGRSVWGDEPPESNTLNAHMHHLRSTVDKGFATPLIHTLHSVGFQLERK

[4] = tested on: T2, CprR N188A N189A (Pseudomonas aeruginosa), ORF:b369b159; assay: EMSA
T2 sequence: T1 sequence with N189A, A193V

[5] = tested on: T3, CprR H214A H215A (Pseudomonas aeruginosa), ORF:b369b159; assay: EMSA
T3 sequence: T1 sequence with A193V, H215A

[6] = tested on: T4, CprR S187A S188A (Pseudomonas aeruginosa), ORF:b369b159; assay: EMSA
T4 sequence: T1 sequence with S188A, A193V

[7] = tested on: T5, CprR (Pseudomonas aeruginosa (PAO1 or PA14; strain of cloned gene not stated)), ORF:b369b159; assay: EMSA
T5 sequence: T1 sequence with A193V

[8] = tested on: T6, CprR W180A W181A (Pseudomonas aeruginosa), ORF:b369b159; assay: EMSA
T6 sequence: T1 sequence with W181A, A193V

[9] = tested on: T7, CprR R198A R199A (Pseudomonas aeruginosa), ORF:b369b159; assay: EMSA
T7 sequence: T1 sequence with A193V, R199A

[10] = tested on: biofilms of uropathogenic E. coli; conditions: cited from earlier work
Description: In the field of microbiology and immunology, the interaction between host antimicrobial peptides and pathogenic bacteria has been a subject of extensive research. The success of bacterial infections depends on a delicate balance of signals exchanged between microbes and hosts. Cationic antimicrobial peptides, including defensins such as α-defensins, β-defensins, and cathelicidin LL-37, are crucial components of innate host defense against bacterial infections. Numerous studies have shown that LL-37 acts as a shield between the host and the external environment, preventing bact ...

Which “effect of acetyl phosphate on DNA binding of the D53A mutant” value [1] does the source give for `CC(=O)OP(=O)(O)O` [acetyl phosphate (ACP), acetyl phosphate] here?
The value was “unable to exhibit this enhanced binding”.

And the “effect of acetyl phosphate on DNA binding of CprR” value [2]?
Its value is “enhanced the binding of CprR to its target higB DNA fragments”.

What about the “effect of acetyl phosphate on DNA binding of CprR” value ([2]; listed as AcP) of the same compound?
Its value is “enhanced the DNA-binding ability of CprR”.

With “CTGGTCGAGTCGATGATGGTGGCCGGGCGCTGAGGCCGGGTTTCCCTCTATAAAACGCCAGCGCTCGTCGCTGGCGTTTTCGTTTCCGCCTGTTCAATTGTCCGCCTCTATGGGGACCATGCTTGTCTTTTGCCAAGAAGAAAACAATAATCAATCTCATTATCGTCTGGTGAGGTTGCC (double strand) [higB promoter (PhigB)]” as the compound, how does the binding [3] read?
Its binding is “binds more weakly”.

And the binding [4]?
Its binding is “binds more weakly”.

What about the binding [5] of the same compound?
The binding was “binds more weakly”.

And the binding [6]?
Its binding is “binds more weakly”.

And the binding [7]?
The binding was “binds”.

What about the binding [8] of the same compound?
Its binding is “binds more weakly”.

And the binding [9]?
The binding was “binds more weakly”.

Which biofilm disruption [10] does the source give for Cecropin A here?
The biofilm disruption was “disrupt biofilms of uropathogenic E. coli”.
